Assay results: patent publication EP1242600B1 (ZymoGenetics, Inc., dated 2001)
Several values for one entry are separate records, joined by “and”; a condition that tells them apart may be missing. Identical values can stand only once.

Target: T1, CRF2-4/zcytor11 heterodimeric receptor on BaF3/CRF2-4/zcytor11 cells (human, UniProt Q08334 20-325, limits assumed)
T1 sequence 1: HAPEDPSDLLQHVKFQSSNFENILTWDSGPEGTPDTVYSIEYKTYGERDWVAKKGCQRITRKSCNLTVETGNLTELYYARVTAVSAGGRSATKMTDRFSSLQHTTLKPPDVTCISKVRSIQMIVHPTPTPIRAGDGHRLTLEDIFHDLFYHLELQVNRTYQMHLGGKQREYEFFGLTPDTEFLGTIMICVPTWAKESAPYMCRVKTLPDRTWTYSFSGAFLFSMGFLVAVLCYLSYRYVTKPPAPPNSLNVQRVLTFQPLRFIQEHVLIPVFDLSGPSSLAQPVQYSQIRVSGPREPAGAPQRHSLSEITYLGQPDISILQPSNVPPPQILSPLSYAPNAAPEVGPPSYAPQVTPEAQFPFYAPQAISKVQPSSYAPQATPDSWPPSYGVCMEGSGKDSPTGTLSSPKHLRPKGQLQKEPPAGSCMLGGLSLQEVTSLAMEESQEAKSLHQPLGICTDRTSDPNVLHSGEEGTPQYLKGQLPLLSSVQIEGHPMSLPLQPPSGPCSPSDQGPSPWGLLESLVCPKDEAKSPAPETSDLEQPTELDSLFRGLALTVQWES
T1 sequence 2: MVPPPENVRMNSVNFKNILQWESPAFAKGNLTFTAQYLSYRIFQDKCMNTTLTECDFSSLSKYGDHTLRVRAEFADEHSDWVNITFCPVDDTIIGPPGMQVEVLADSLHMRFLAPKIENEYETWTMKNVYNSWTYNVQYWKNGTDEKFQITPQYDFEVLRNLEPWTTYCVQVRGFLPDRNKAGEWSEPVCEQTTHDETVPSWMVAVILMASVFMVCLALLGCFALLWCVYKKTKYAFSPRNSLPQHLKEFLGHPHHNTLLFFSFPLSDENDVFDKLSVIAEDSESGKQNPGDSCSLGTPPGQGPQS
Assay: cell-based or functional assay

B1: ZCYTO18-CEE polypeptide purified from BHK 570 cells (ligand)
chain: APISSHCRLDKSNFQQPYITNRTFMLAKEASLADNNTDVRLIGEKLFHGVSMSERCYLMKQVLNFTLEEVLFPQSDRFQPYMQEVVPFLARLSNRLSTCHIEGDDLHIQRNVQKLKDTVKKLGESGEIKAIGELDLLFMSLRNACIEYMPME
- proliferation of BaF3/CRF2-4/zcytor11 cells (Alamar Blue): ~15 fold over background and 2 fold induction
